The supplement of paper PMC10567573

B1: CD69 (parent)
chain: FVAENSSLHPESGQENDATSPHFS

Variants of: B1
Test: protein stability index of a GFP-peptide fusion (GPS, HEK-293T) (PSI 1-6); higher = more stable
Conditions: c terminus: a fixed tail appended
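Further: lentivirally expressed fusions sorted by FACS into six bins by GFP to DsRed ratio, PSI derived from sequencing read proportions per bin multiplied by bin number.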

Protein stability index of substitutions, site by site:
E11: S 2.52, Y 2.22, T 2.84, G 2.46, M 2.36, C 1.96, H 2.36, V 2.38, W 2.05
H22: N 3.21, E 3.82, M 2.71, I 2.45, L 2.64, F 1.66, S 2.86, G 3.33, D 3.79, P 3.19, A 3.21, Y 1.72, R 3.18, W 2.72
E4: C 1.93, V 3.2, W 3.23, N 2.87, Y 2.39, G 3.99, F 2.18, K 2.89, D 2.61, S 2.44, L 2.9, A 2.85, I 2.42, P 3.51
Q14: R 2.76, L 2.87, A 3.06, G 2.58, C 2.95, P 2.66, K 3.13, F 2.84, W 2.48, H 3.47, E 3.51, I 3.04
L8: V 3.01, F 2.4, E 3.86, W 1.72, A 3.41, T 3.64, D 3.62, M 3.06, P 3.41, I 3.24, N 3.65, G 3.78, C 2.8, R 2.49, K 2.68
A3: L 2.95, V 3.43, S 2.56, I 2.86, D 2.95, K 2.95, G 2.98, T 3.12, Q 3.27, N 3.21, R 2.88, E 3.57, P 2.41, W 2.82, Y 3.02, C 2.73, F 3.02, M 3.11
G13: N 3.33, A 2.69, H 2.46, I 2.61, P 3.32, C 2.89, T 3.59, D 3.4, Q 3.09, V 3.21, M 3.38, F 2.69, S 3.31, W 1.97, K 3.24, E 3.41
S24: R 1.77, C 2.5, P 2.57, T 3.27, H 3.55, Y 2.38, L 3.04, M 2.09, N 2.92, G 3.13, I 2.19, V 2.77
V2: D 5.18, A 4.94, R 5.36, I 4.44, C 4.82, K 5.4, M 4.87, L 5, T 5.17, G 5.26, Y 4.84, E 5.5, P 5.46, H 4
S6: G 3.37, Y 2.85, D 4.33, F 2.21, C 2.46, K 2.72, P 2.58, E 4.05, H 3.01, R 2.27, Q 3.08, L 1.5
E15: Q 3.05, F 1.91, A 2.88, I 2.51, K 2.76, D 3.06, C 2.57, T 2.78, P 2.32, L 2.12, M 2.83, G 2.59, N 2.6, V 2.67
T19: L 2.6, K 2.37, F 1.97, D 3.75, H 3.19, R 2.92, M 2.73, N 2.9, A 3.35, G 3.24, Q 3.16, V 2.77, C 2.5, Y 2.02, S 2.84, I 3.16, W 2.75
